Results on 2 proteins are retold here after paper PMC2788424, “The 3′-Phosphoadenosine 5′-Phosphosulfate Transporters, PAPST1 and 2, Contribute to the Maintenance and Differentiation of Mouse Embryonic Stem Cells” (PLoS ONE, 2009).

Substrate in the data set: Nc1ncnc2c1ncn2[C@@H]1O[C@H](COP(=O)(O)OS(=O)(=O)O)[C@@H](OP(=O)(O)O)[C@H]1O
Briefly: cells, lysate or membranes. The class given is biochemical, Mus musculus. Conditions: labelled compound, 20 mM Tris-HCl pH 7.5, 0.25 M sucrose, 5 mM MgCl2, 1 mM MnCl2, 10 mM 2-mercaptoethanol, 32°C, 5 min.

B1: PAPST2 (Mus musculus) (protein)
chain: MDLKFNNSRKYVSISVPSKTQAMSPHIKSVEDVVVLGVNLSKFSKLTQFLICVAGVFVFYLIYGYLQELIFSVEGFKPYGWYLTLVQFAFYSVFGLIELQLTQDRRRRIPGKTYMLIAFLTVGTMGLSNTSLGYLNYPTQVIFKCCKLIPVMLGGVFIQGKRYNLADVSAAVCMSLGLIWFTLADSTIAPNFNLTGVMLISLALCADAVIGNVQEKAMKLHNASNSEMVLYSYSIGFVYILLGLSCTSGLGPAVAFCSKNPVGTYGYAFLFSLTGYFGISFVLALIKIFGALLAVTVTTGRKAMTVVLSFLFFAKPFTFQYIWSGLLVVLGIFLNVYSKNMDKIRLPSVYNMIKKAMDMKKSRTLAQTV
As usually defined, the Km is the concentration of substrate that gives half-maximal velocity. B1: the Km was determined as 1.49 µM.

B2: PAPST1 (Mus musculus) (protein)
chain: MDARWWAVVVLATLPSLGAGGESPEAPPQSWTQLWLFRFLLNVAGYASFMVPGYLLVQYLRRKNYLETGRGLCFPLVKACVFGNEPKAPDEVLLAPRTETAESTPSWQVLKLVFCASGLQVSYLTWGILQERVMTGSYGATATSPGEHFTDSQFLVLMNRVLALVVAGLYCVLRKQPRHGAPMYRYSFASLSNVLSSWCQYEALKFVSFPTQVLAKASKVIPVMMMGKLVSRRSYEHWEYLTAGLISIGVSMFLLSSGPEPRSSPATTLSGLVLLAGYIAFDSFTSNWQDALFAYKMSSVQMMFGVNLFSCLFTVGSLLEQGALLEGARFMGRHSEFALHALLLSICSAFGQLFIFYTIGQFGAAVFTIIMTLRQAIAILLSCLLYGHTVTVVGGLGVAVVFTALLLRVYARGRKQRGKKAVPTEPPVQKV
For the protein B2, the Michaelis-Menten constant (Km) is recorded as 1.54 µM.
